B1: Human plasmin (protein)
chain: KVYLSECKTGNGKNYRGTMSKTKNGITCQKWSSTSPHRPRFSPATHPSEGLEENYCRNPDNDPQGPWCYTTDPEKRYDYCDILECEEECMHCSGENYDGKISKTMSGLECQAWDSQSPHAHGYIPSKFPNKNLKKNYCRNPDRELRPWCFTTDPNKRWELCDIPRCTTPPPSSGPTYQCLKGTGENYRGNVAVTVSGHTCQHWSAQTPHTHNRTPENFPCKNLDENYCRNPDGKRAPWCHTTNSQVRWEYCKIPSCDSSPVSTEQLAPTAPPELTPVVQDCYHGDGQSYRGTSSTTTTGKKCQSWSSMTPHRHQKTPENYPNAGLTMNYCRNPDADKGPWCFTTDPSVRWEYCNLKKCSGTEASVVAPPPVVLLPDVETPSEEDCMFGNGKGYRGKRATTVTGTPCQDWAAQEPHRHSIFTPETNPRAGLEKNYCRNPDGDVGGPWCYTTNPRKLYDYCDVPQCAAPSFDCGKPQVEPKKCPGRVVGGCVAHPHSWPWQVSLRTRFGMHFCGGTLISPEWVLTAAHCLEKSPRPSSYKVILGAHQEVNLEPHVQEIEVSRLFLEPTRKDIALLKLSSPAVITDKVIPACLPSPNYVVADRTECFITGWGETQGTFGAGLLKEAQLPVIENKVCNRYEFLNGRVQSTELCAGHLAGGTDSCQGDSGGPLVCFEKDKYILQGVTSWGLGCARPNKPGVYVRVSRFVTWIEGVMRNN
B2: Human matriptase (protein)
chain: VVGGTDADEGEWPWQVSLHALGQGHICGASLISPNWLVSAAHCYIDDRGFRYSDPTQWTAFLGLHDQSQRSAPGVQERRLKRIISHPFFNDFTFDYDIALLELEKPAEYSSMVRPICLPDASHVFPAGKAIWVTGWGHTQYGGTGALILQKGEIRVINQTTCENLLPQQITPRMMCVGFLSGGVDSCQGDSGGPLSSVEADGRIFQAGVVSWGDGCAQRNKPGVYTRLPLFRDWIKENTGV
B3: Human chymase (protein)
chain: IIGGTECKPHSRPYMAYLEIVTSNGPSKFCGGFLIRRNFVLTAAHCAGRSITVTLGAHNITEEEDTWQKLEVIKQFRHPKYNTSTLHHDIMLLKLKEKASLTLAVGTLPFPSQFNFVPPGRMCRVAGWGRTGVLKPGSDTLQEVKLRLMDPQACSHFRDFDHNLQLCVGNPRKTKSAFKGDSGGPLLCAGVAQGIVSYGRSDAKPPAVFTRISHYRPWINQILQAN
B4: Human tPA (protein)
chain: SYQVICRDEKTQMIYQQHQSWLRPVLRSNRVEYCWCNSGRAQCHSVPVKSCSEPRCFNGGTCQQALYFSDFVCQCPEGFAGKCCEIDTRATCYEDQGISYRGTWSTAESGAECTNWNSSALAQKPYSGRRPDAIRLGLGNHNYCRNPDRDSKPWCYVFKAGKYSSEFCSTPACSEGNSDCYFGNGSAYRGTHSLTESGASCLPWNSMILIGKVYTAQNPSAQALGLGKHNYCRNPDGDAKPWCHVLKNRRLTWEYCDVPSCSTCGLRQYSQPQFRIKGGLFADIASHPWQAAIFAKHRRSPGERFLCGGILISSCWILSAAHCFQERFPPHHLTVILGRTYRVVPGEEEQKFEVEKYIVHKEFDDDTYDNDIALLQLKSDSSRCAQESSVVRTVCLPPADLQLPDWTECELSGYGKHEALSPFYSERLKEAHVRLYPSSRCTSQHLLNRTVTDNMLCAGDTRSGGPQANLHDACQGDSGGPLVCLNDGRMTLVGIISWGLGCGQKDVPGVYTKVTNYLDWIRDNMRP
B5: Human HTRA2 (protein)
chain: AVPSPPPASPRSQYNFIADVVEKTAPAVVYIEILDRHPFLGREVPISNGSGFVVAADGLIVTNAHVVADRRRVRVRLLSGDTYEAVVTAVDPVADIATLRIQTKEPLPTLPLGRSADVRQGEFVVAMGSPFALQNTITSGIVSSAQRPARDLGLPQTNVEYIQTDAAIDFGNSGGPLVNLDGEVIGVNTMKVTAGISFAIPSDRLREFLHRGEKKNSSSGISGSQRRYIGVMMLTLSPSILAELQLREPSFPDVQHGVLIHKVILGSPAHRAGLRPGDVILAIGEQMVQNAEDVYEAVRTQSQLAVQIRRGRETLTLYVTPEVTE

Target: HTRA1-inhibiting peptides (Example 3-2 and 3-3, members not named)

Row | Protein | protease activity (decomposition of a peptide substrate)
1 | B1 | did not suppress the protease activity of any of the proteases at a final inhibitor concentration of 1 micro M
2 | B2 | did not suppress the protease activity of any of the proteases at a final inhibitor concentration of 1 micro M
3 | B3 | did not suppress the protease activity of any of the proteases at a final inhibitor concentration of 1 micro M
4 | B4 | did not suppress the protease activity of any of the proteases at a final inhibitor concentration of 1 micro M
5 | B5 | did not suppress the protease activity of any of the proteases at a final inhibitor concentration of 1 micro M
